Assay [1] has as its target T1, VKLSCKASGYIFTSHRGGPEE (SEQ. ID. No. 74).
T1 peptide: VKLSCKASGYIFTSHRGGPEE
The experiment in a line: competition EIA, 5 ug HBcAg peptide + 5 ug SEQ 74 peptide on coated HBcAg (competitor); OD of bound SEQ 74 peptide.

Assay [2] concerns the target T2, Full length recombinant HBcAg (rHBcAg) encompassing residues 1-183 (hepatitis B virus, UniProt P03146 1-183).
T2 construct: range 1-183; also called hepatitis B virus core antigen
As to the kind of experiment: competition EIA, peptide added to HBcAg before mAb 4-2 (competitor); OD of bound mAb.

Assay [3] deals with T2, Full length recombinant HBcAg (rHBcAg) …. The experiment in a line: EIA, support-bound peptide, HBcAg 5 ug/ml.
For assay [4] the target is unchanged. As to the kind of experiment: EIA, peptide coated 3.125 ug/ml, HBcAg 10 ug/ml.
The target in assay [5] is T3, truncated recombinant form of HBeAg containing nine residues of pre-core and the 150 first residues of HBcAg (hepatitis B virus, UniProt P03146 1-150).
T3 construct: domain: nine residues of pre-core;range 1-150; also called hepatitis B virus e antigen
T3 sequence (P03146 1-150): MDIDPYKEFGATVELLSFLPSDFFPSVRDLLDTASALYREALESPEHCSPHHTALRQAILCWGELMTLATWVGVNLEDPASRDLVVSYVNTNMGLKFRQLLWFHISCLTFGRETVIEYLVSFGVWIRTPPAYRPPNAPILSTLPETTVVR
As to the kind of experiment: EIA, support-bound peptide, HBeAg 10 ug/ml.

Assay [6] deals with T3, truncated recombinant form of HBeAg …. As to the kind of experiment: EIA, support-bound peptide, HBeAg 2.5 ug/ml.
Assay [7] has the same target. As to the kind of experiment: EIA, support-bound peptide, HBeAg 5 ug/ml.
The target of assay [8] is T2, Full length recombinant HBcAg (rHBcAg) …. The experiment in a line: EIA, support-bound peptide, HBcAg 1.25 ug/ml.
Assay [9] shares this target. As to the kind of experiment: EIA, support-bound peptide, HBcAg 10 ug/ml.
The target is the same in assay [10]. The experiment in a line: EIA, support-bound peptide, HBcAg 0.67 ug/ml.
Assay [11] shares this target. The experiment in a line: EIA, peptide coated 50 ug/ml, HBcAg 10 ug/ml.
The target is the same in assay [12]. As to the kind of experiment: EIA, peptide coated 6.25 ug/ml, HBcAg 10 ug/ml.
The target is the same in assay [13]. The experiment in a line: EIA, support-bound peptide, HBcAg 2.5 ug/ml.
Assay [14] shares this target. The experiment in a line: EIA, peptide coated 100 ug/ml, HBcAg 10 ug/ml.
The target of assay [15] is T3, truncated recombinant form of HBeAg …. As to the kind of experiment: EIA, support-bound peptide, HBeAg 20 ug/ml.
Assay [16] concerns the target T2, Full length recombinant HBcAg (rHBcAg) …. As to the kind of experiment: EIA, peptide coated 25 ug/ml, HBcAg 10 ug/ml.
The target is the same in assay [17]. The experiment in a line: EIA, peptide coated 12.5 ug/ml, HBcAg 10 ug/ml.
Assay [18] addresses T3, truncated recombinant form of HBeAg …. As to the kind of experiment: EIA, support-bound peptide, HBeAg 1.25 ug/ml.
In assay [19] the target is T2, Full length recombinant HBcAg (rHBcAg) …. The experiment in a line: EIA, support-bound peptide, HBcAg 2 ug/well.
Assay [20] concerns the target T4, non-structural 3 protein (NS3) of the hepatitis C virus (HCV) (hepatitis C virus).
T4 construct: Control antigen; also called HCV NS3
The experiment in a line: EIA, support-bound peptide, HCV NS3 control.

The target in assay [21] is T3, truncated recombinant form of HBeAg …. As to the kind of experiment: EIA, support-bound peptide, HBeAg 0.67 ug/ml.
Assay [22] addresses T2, Full length recombinant HBcAg (rHBcAg) …. As to the kind of experiment: EIA, support-bound peptide, HBcAg 0.2 ug/well.
The target is the same in assay [23]. As to the kind of experiment: EIA, support-bound peptide, HBcAg 5 ug/ml. The source holds these as a separate data set.
Assay [24] shares this target. As to the kind of experiment: EIA, support-bound peptide, HBcAg 20 ug/ml.

T2 sequence (P03146 whole entry, the tested form may be a part): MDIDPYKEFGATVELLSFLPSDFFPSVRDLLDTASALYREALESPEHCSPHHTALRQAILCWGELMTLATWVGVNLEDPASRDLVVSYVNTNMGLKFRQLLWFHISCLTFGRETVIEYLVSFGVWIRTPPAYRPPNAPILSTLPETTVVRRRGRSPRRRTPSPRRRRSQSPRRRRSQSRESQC

Turning to ATVELLSFLPSDFFPSVRDL [HBcAg peptide ATVELLSFLPSDFFPSVRDL (residues 11-30, Sequence ID 96)], the “OD at 490 nm” value in assay [1] came to 1.39 OD.

For the molecule SCKASGYIFTS [SCKASGYIFTS (SEQ. ID. No. 47)], the “OD at 490 nm” value in assay [2] is 0.784 OD; in [3], 0.297 OD.

With CKASGYIFTS [CKASGYIFTS (SEQ. ID. No. 48)], the entries for the “OD at 490 nm” value in [2] and in assay [3] were 0.851 OD and 0.255 OD, respectively.

SGYIFTS [SGYIFTS (SEQ. ID. No. 51)]: the “OD at 490 nm” value was determined as 0.887 OD in assay [2] and 0.389 OD in assay [3].

Turning to SDFFPSVRDLLDTASALYRE [HBcAg peptide SDFFPSVRDLLDTASALYRE (residues 21-40, Sequence ID 97)], the “OD at 490 nm” value in assay [1] stood at 1.58 OD.

As for CWGELMTLATWVGVNLEDPA [HBcAg peptide CWGELMTLATWVGVNLEDPA (residues 61-80, Sequence ID 101)], the “OD at 490 nm” value in assay [1] is 1.4 OD.

With ALESPEHCSPHHTALRQAIL [HBcAg peptide ALESPEHCSPHHTALRQAIL (residues 41-60, Sequence ID 99)], the “OD at 490 nm” value in [1] was found to be 1.37 OD.

With KASGYIFTS [KASGYIFTS (SEQ. ID. No. 49)], the “OD at 490 nm” value in assay [2] was determined as 0.866 OD; in assay [3], 0.237 OD.

For TNMGLKFRQLLWFHISCLTF [HBcAg peptide TNMGLKFRQLLWFHISCLTF (SEQ. ID. No. 104, residues 91-110)], in assay [1], the “OD at 490 nm” value is 0.058 OD.

With AYRPPNAPILSTLPETTVVR [HBcAg peptide AYRPPNAPILSTLPETTVVR (residues 131-150, Sequence ID 108)], in [1], the “OD at 490 nm” value was 1.56 OD.

For LDTASALYREALESPEHCSP [HBcAg peptide LDTASALYREALESPEHCSP (residues 31-50, Sequence ID 98)], in assay [1], the “OD at 490 nm” value stood at 1.59 OD.

As to GYIFTS [GYIFTS (SEQ. ID. No. 52)], the “OD at 490 nm” value was 0.903 OD in [2] and 0.414 OD in assay [3].

As for WVGVNLEDPASRDLVVSYVN [HBcAg peptide WVGVNLEDPASRDLVVSYVN (residues 71-90, Sequence ID 102)], in assay [1], the “OD at 490 nm” value came out at 1.41 OD.

Turning to LSCKASGYIFTS [LSCKASGYIFTS (SEQ. ID. No. 46)], the “OD at 490 nm” value in assay [2] stood at 0.777 OD; in assay [3], 0.565 OD.

For YNMNWVKQSHGKSLEWIGNI (also called Peptide # 27) [YNMNWVKQSHGKSLEWIGNI (SEQ. ID. No. 30)], the OD in assay [4] came out at 0.168 OD; in [5], 0.037 OD; in [6], 0.032 OD; in [7], 0.029 OD; in assay [8], 0.026 OD; in assay [9], 0.115 OD. The OD in [10] was 0.02 OD; in assay [11], 0.17 OD; in assay [12] it was 0.175 OD; in assay [13], 0.042 OD; in [14], 0.151 OD; in [15], 0.04 OD. In addition, the OD in [16] turned out to be 0.162 OD; in assay [17], 0.181 OD; in assay [18], 0.021 OD; in [21], 0.018 OD; in assay [23], 0.059 OD; in assay [24], 0.305 OD. In addition, the “OD at 405 nm” value is 0.157 OD in [19], 0.021 OD in [20] and 0.114 OD in [22].

As to LWFHISCLTFGRETVIEYLV [HBcAg peptide LWFHISCLTFGRETVIEYLV (residues 101-120, Sequence ID 105)], in assay [1], the “OD at 490 nm” value amounted to 1.13 OD.

In the case of SRDLVVSYVNTNMGLKFRQL [HBcAg peptide SRDLVVSYVNTNMGLKFRQL (SEQ. ID. NO. 103, residues 81-100)], the “OD at 490 nm” value in assay [1] amounted to 0.386 OD.

For the molecule ASGYIFTS [ASGYIFTS (SEQ. ID. No. 50)], the “OD at 490 nm” value in assay [2] stood at 0.92 OD; in [3], 0.407 OD.

Values taken from US20020058247A1 (TRIPEP, published 2002).
